Test results taken from patent publication US20200262920A1 (AMPHIVENA THERAPEUTICS, published 2020).
Values joined by “and” are separate entries in the source; they are usually repeats but may differ in a detail not shown here. Equal values may be shown once.

B1: CD33/CD3 2×2 T-cell engager 12 (bispecific antibody)
chain: DIQMTQSPSSLSASVGDRVTITCRSSTGAVTTSNYANWVQQKPGKAPKALIGGTNKRAPGVPSRFSGSLIGDKATLTISSLQPEDFATYYCALWYSNLWVFGQGTKVEIKGGSGGSQVQLVQSGAEVKKPGASVKVSCKASGYTFTSYDINWVRQAPGQGLEWMGWMNPNSGNTGFAQKFQGRVTMTRDTSTSTVYMELSSLRSEDTAVYYCARDRAVTDYYYGMDVWGQGTLVTVSSGGSGQSVLTQPPSASGTPGQRVTISCSGSRSNIGSNTVNWYQQLPGTAPKLLIYGNNQRPSGVPDRFSGSKSGTSASLAISGLQSEDEADYYCATWDDSLIGWVFGGGTKLTVLGGSGGSEVQLVESGGGLVQPGGSLRLSCAASGFTFSTYAMNWVRQAPGKGLEWVGRIRSKYNNYATYYADSVKDRFTISRDDSKNSLYLQMNSLKTEDTAVYYCARHGNFGNSYVSYFAYWGQGTLVTVSSAAAGSHHHHHH
notes: Non-covalent homodimer; also called tandom diabody 12
B2: CD33/CD3 2×2 T-cell engager 21 (bispecific antibody)
chain: DIQMTQSPSSLSASVGDRVTITCRSSTGAVTTSNYANWVQQKPGKAPKALIGGTNKRAPGVPSRFSGSLIGDKATLTISSLQPEDFATYYCALWYSNLWVFGQGTKVEIKGGSGGSQVQLVQSGAEVKKPGSSVKVSCKASGGTFSSYAISWVRQAPGQGLEWMGGIYPIFGSANYAQKFQGRVTITADESTSTAYMELSSLRSEDTAVYYCAREYYYDSSEWAFDIWGQGTLVTVSSGGSGQSVLTQPPSASGTPGQRVTISCSGSSSNIGSNIVNWYQQLPGTAPKLLIYSNNQRPSGVPDRFSGSKSGTSASLAISGLQSEDEADYYCAAWDDSLKGYVFGGGTKLTVLGGSGGSEVQLVESGGGLVQPGGSLRLSCAASGFTFSTYAMNWVRQAPGKGLEWVGRIRSKYNNYATYYADSVKDRFTISRDDSKNSLYLQMNSLKTEDTAVYYCARHGNFGNSYVSYFAYWGQGTLVTVSSAAAGSHHHHHH
notes: Non-covalent homodimer
B3: CD33/CD3 2×2 T-cell engager 22 (bispecific antibody)
chain: DIQMTQSPSSLSASVGDRVTITCRSSTGAVTTSNYANWVQQKPGKAPKALIGGTNKRAPGVPSRFSGSLIGDKATLTISSLQPEDFATYYCALWYSNLWVFGQGTKVEIKGGSGGSQVQLVQSGAEVKKPGSSVKVSCKASGGTFSSYGISWVRQAPGQGLEWMGGIIPIFGSAHYAQKFQGRVTITADESTSTAYMELSSLRSEDTAVYYCAREYYYDSSEWAFDIWGQGTLVTVSSGGSGQSVLTQPPSASGTPGQRVTISCSGSSSNIGSNTVKWYQQLPGTAPKLLIYSNNQRSSGVPDRFSGSKSGSSASLAISGLQSEDEADYYCAAWDDSLNGYVFGGGTKLTVLGGSGGSEVQLVESGGGLVQPGGSLRLSCAASGFTFSTYAMNWVRQAPGKGLEWVGRIRSKYNNYATYYADSVKDRFTISRDDSKNSLYLQMNSLKTEDTAVYYCARHGNFGNSYVSYFAYWGQGTLVTVSSAAAGSHHHHHH
notes: Non-covalent homodimer
B4: CD33/CD3 2×2 T-cell engager 19 (bispecific antibody)
chain: DIQMTQSPSSLSASVGDRVTITCRSSTGAVTTSNYANWVQQKPGKAPKALIGGTNKRAPGVPSRFSGSLIGDKATLTISSLQPEDFATYYCALWYSNLWVFGQGTKVEIKGGSGGSQVQLVQSGAEVKKPGASVKVSCKASGYTFTSYYMHWVRQAPGQGLEWMGIINPSGGSTSYAQKFQGRVTMTRDTSTSTVYMELSSLRSEDTAVYYCARDVVPAAIDYYGMDVWGQGTTVTVSSGGSGQSVLTQPPSASGTPGQRVTISCSGSSSNIGSNTVNWYQQLPGTAPKLLIYSDNQRPSGVPDRFSGSKSGSSASLAISGLQSDDEADYYCATWDDSLNGAVFGGGTKLTVLGGSGGSEVQLVESGGGLVQPGGSLRLSCAASGFTFSTYAMNWVRQAPGKGLEWVGRIRSKYNNYATYYADSVKDRFTISRDDSKNSLYLQMNSLKTEDTAVYYCARHGNFGNSYVSYFAYWGQGTLVTVSSAAAGSHHHHHH
notes: Non-covalent homodimer

Columns and labels:
human CD3 [1] = molecular target: T1, human CD3 (human, UniProt P07766 23-207; P09693 23-182; P04234 22-171; P20963 22-164); experiment: flow cytometry, human T-cells
T1 construct: whole, on cells; the description names the epsilon chain only 'in certain instances'; also called hu CD3; CD3 on T cells
T1 sequence (P07766 23-207, chain 1 of 4): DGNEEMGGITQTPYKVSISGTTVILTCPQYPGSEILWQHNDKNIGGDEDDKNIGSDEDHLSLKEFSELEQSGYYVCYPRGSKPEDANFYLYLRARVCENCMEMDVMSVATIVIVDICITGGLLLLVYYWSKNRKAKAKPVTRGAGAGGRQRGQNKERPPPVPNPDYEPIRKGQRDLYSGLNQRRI
T1 sequence (P09693 23-182, chain 2 of 4): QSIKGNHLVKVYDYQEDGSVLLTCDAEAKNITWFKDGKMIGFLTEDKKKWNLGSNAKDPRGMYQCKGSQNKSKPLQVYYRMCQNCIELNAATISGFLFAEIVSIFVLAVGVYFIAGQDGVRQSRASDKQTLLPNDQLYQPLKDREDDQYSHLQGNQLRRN
T1 sequence (P04234 22-171, chain 3 of 4): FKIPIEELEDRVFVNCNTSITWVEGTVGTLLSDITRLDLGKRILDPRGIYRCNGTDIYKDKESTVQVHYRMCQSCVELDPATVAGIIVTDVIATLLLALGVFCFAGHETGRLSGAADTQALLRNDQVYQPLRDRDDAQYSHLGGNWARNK
T1 sequence (P20963 22-164, chain 4 of 4): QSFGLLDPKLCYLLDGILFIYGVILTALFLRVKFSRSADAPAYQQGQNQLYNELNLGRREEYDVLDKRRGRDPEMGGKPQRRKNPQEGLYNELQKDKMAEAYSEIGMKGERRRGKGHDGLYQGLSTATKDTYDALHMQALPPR

human CD33 [2] = molecular target: T2, human CD33 (human, UniProt P20138 18-364); experiment: cell-based or functional assay
T2 sequence (P20138 18-364): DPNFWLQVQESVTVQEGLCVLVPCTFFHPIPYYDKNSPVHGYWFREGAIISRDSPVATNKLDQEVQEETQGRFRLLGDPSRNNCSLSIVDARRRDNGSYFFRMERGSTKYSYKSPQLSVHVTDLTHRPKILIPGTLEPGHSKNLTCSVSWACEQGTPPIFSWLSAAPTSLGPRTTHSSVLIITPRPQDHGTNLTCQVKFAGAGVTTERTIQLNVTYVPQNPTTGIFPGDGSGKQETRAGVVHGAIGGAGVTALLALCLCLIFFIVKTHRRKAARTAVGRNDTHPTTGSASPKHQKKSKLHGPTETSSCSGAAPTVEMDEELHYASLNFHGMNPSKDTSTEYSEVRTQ

human CD33 [3] = molecular target: T2, human CD33; experiment: cell-based or functional assay; remark: listed apart in the source
human CD33 [4] = molecular target: T2, human CD33; experiment: cell-based or functional assay; remark: listed apart in the source
human CD33 [5] = molecular target: T2, human CD33; experiment: cell-based or functional assay; remark: listed apart in the source
human CD33 [6] = molecular target: T2, human CD33; experiment: flow cytometry titration, HL-60 cells
Experimental: (§1) Cells were incubated with 100 μL of serial dilutions of CD33/CD3 2×2 T-cell engagers. After washing three times with FACS buffer the cells were incubated with 0.1 mL of 10 μg/mL mouse monoclonal anti-His antibody in the same buffer for 45 min on ice. After a second washing cycle, the cells were incubated with 0.1 mL of 15 μg/mL FITC-conjugated goat anti-mouse IgG antibodies under the same conditions as before. As a control, cells were incubated with the anti-His IgG followed by the FITC-conjugated goat anti-mouse IgG antibodies without anti-CD33 2×2 T-cell engagers. The cells were then washed again and resuspended in 0.2 mL of FACS buffer containing 2 μg/mL propidium iodide (PI) in order to exclude dead cells. The fluorescence of 1×10⁴ living cells was measured using a Beckman-Coulter FC500 MPL flow cytometer using the MXP software (Beckman-Coulter, Krefeld, Germany) or a Millipore Guava EasyCyte flow cytometer using the Incyte software (Merck Millipore, Schwalbach, Germany). Mean fluorescence intensities of the cell samples were calculated using CXP software (Beckman-Coulter, Krefeld, Germany) or Incyte software (Merck Millipore, Schwalbach, Germany). After subtracting the fluorescence intensity values of the cells stained with the secondary and tertiary reagents alone the values were used for calculation of the KD values with the equation for one-site binding (hyperbola) of the GraphPad Prism (version 6.00 for Windows, GraphPad Software, La Jolla Calif. USA). […]

human CD3 [7] = molecular target: T1, human CD3; experiment: cell-based or functional assay
human CD33 [8] = molecular target: T2, human CD33; experiment: flow cytometry titration, U-937 cells
Experimental: as §1

human CD33 [9] = molecular target: T2, human CD33; experiment: flow cytometry titration, KG-1 cells
Experimental: as §1

human CD3 [10] = molecular target: T1, human CD3; experiment: flow cytometry titration, T cells (human CD3+)
human CD33 [11] = molecular target: T2, human CD33; experiment: flow cytometry, HL-60 cells
cynomolgus CD33 = molecular target: T3, cynomolgus CD33 (cynomolgus, UniProt A0A7N9ICR5 17-359); experiment: ratio of KD by flow cytometry on CHO cells expressing cynomolgus CD33 vs human CD33
T3 construct: whole, on cells; also called cynoCD33; cyno CD33
Experimental: Cells were incubated with 100 μL of serial dilutions of CD33/CD3 2×2 T-cell engagers. After washing three times with FACS buffer the cells were incubated with 0.1 mL of 10 μg/mL mouse monoclonal anti-His antibody in the same buffer for 45 min on ice. After a second washing cycle, the cells were incubated with 0.1 mL of 15 μg/mL FITC-conjugated goat anti-mouse IgG antibodies under the same conditions as before. As a control, cells were incubated with the anti-His IgG followed by the FITC-conjugated goat anti-mouse IgG antibodies without anti-CD33 2×2 T-cell engagers. The cells were then washed again and resuspended in 0.2 mL of FACS buffer containing 2 μg/mL propidium iodide (PI) in order to exclude dead cells. The fluorescence of 1×10⁴ living cells was measured using a Beckman-Coulter FC500 MPL flow cytometer using the MXP software (Beckman-Coulter, Krefeld, Germany) or a Millipore Guava EasyCyte flow cytometer using the Incyte software (Merck Millipore, Schwalbach, Germany). Mean fluorescence intensities of the cell samples were calculated using CXP software (Beckman-Coulter, Krefeld, Germany) or Incyte software (Merck Millipore, Schwalbach, Germany). After subtracting the fluorescence intensity values of the cells stained with the secondary and tertiary reagents alone the values were used for calculation of the KD values with the equation for one-site binding (hyperbola) of the GraphPad Prism (version 6.00 for Windows, GraphPad Software, La Jolla Calif. USA).
CD3 binding affinity and crossreactivity were evaluated in titration and flow cytometric experiments on CD3⁺ Jurkat cells (provided by Dr. Moldenhauer, DKFZ Heidelberg; human acute T-cell leukemia) and the cynomolgus CD3⁺ HSC-F cell line (JCRB, cat.:JCRB 1164). […] The KD ratio of crossreactivity was calculated using the KD values determined on the CHO cell lines expressing either recombinant human or recombinant cynomolgus antigens.

Binder | Kd (human CD3 [1]) | IC50, lysis of KG-1 cells with human T cells (human CD33 [2]) | EC50 on HL-60 (cytotoxicity) (human CD33 [4]) | Kd (human CD33 [6]) | CD25 Induction EC50 (human CD3 [7]) | CD69 Induction EC50 (human CD3 [7]) | T cell Proliferation in PBMC EC50 (human CD3 [7]) | Kd (human CD33 [8]) | Kd (human CD33 [9]) | Kd (human CD3 [10]) | Kd (human CD33 [11]) | KD ratio cynoCD33/huCD33 (cynomolgus CD33) | also measured
B1 | 1500 pM | ~0.01 pM | 1.3 pM | 300 pM | 6 pM | 3 pM | 2 pM | 500 pM | 900 pM | 1500 pM | 300 pM | – | EC50, cytotoxicity on HL-60 (human CD33 [3]): 1.3 pM and 137 pg/mL; EC50, cytotoxicity on KG-1 (human CD33 [3]): 1.2 pM and 126 pg/mL; EC50, cytotoxicity on U-937 (human CD33 [3]): 0.8 pM and 84 pg/mL; EC50, cytotoxicity, mean of HL-60, U-937, KG-1 (human CD33 [3]): 1.1 pM and 116 pg/mL; EC50 (mean), redirected lysis of BV-173 cells (human CD33 [5]): 1.4 pM; EC50 (mean), redirected lysis of CHO-CD33 cells (human CD33 [5]): 11.8 pM; EC50 (mean), redirected lysis of HL-60 cells (human CD33 [5]): 1.4 pM; EC50 (mean), redirected lysis of K562 cells (human CD33 [5]): 4.5 pM; EC50 (mean), redirected lysis of KASUMI-1 cells (human CD33 [5]): 1.3 pM; EC50 (mean), redirected lysis of KG-1 cells (human CD33 [5]): 1 pM; EC50 (mean), redirected lysis of RPMI-8226 cells (human CD33 [5]): 14 pM; EC50 (mean), redirected lysis of THP-1 cells (human CD33 [5]): 1.9 pM; EC50 (mean), redirected lysis of U-937 cells (human CD33 [5]): 0.9 pM
B2 | 2100 pM | – | 7.6 pM | 9700 pM | – | 225 pM | 500 pM | 80200 pM | 25100 pM | 2100 pM | 9700 pM | 0.9 | –
B3 | 4100 pM | – | 3.2 pM | 700 pM | 10 pM | 4 pM | 7 pM | 8600 pM | 2000 pM | 4100 pM | 700 pM | 0.6 | –
B4 | 6300 pM | ~5 pM | 5.7 pM | 2800 pM | 9 pM | 5 pM | 6 pM | 5400 pM | 3600 pM | 6300 pM | 2800 pM | 37.3 | –
